The results in this text go back to US20150140169.

This data set concerns the target T1, alpha-s1 casein from Bos taurus.
T1 chain: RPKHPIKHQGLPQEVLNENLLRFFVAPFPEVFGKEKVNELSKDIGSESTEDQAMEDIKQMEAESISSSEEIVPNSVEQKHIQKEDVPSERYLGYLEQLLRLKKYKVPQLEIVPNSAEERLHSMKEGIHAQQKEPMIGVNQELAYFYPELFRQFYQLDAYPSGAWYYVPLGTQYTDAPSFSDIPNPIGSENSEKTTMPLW

B1: camel chymosin variant #136 (F223C) (protein)
chain: GKVAREPLTSYLDSQYFGKIYIGTPPQEFTVVFDTGSSDLWVPSIYCKSNVCKNHHRFDPRKSSTFRNLGKPLSIHYGTGSMEGFLGYDTVTVSNIVDPNQTVGLSTEQPGEVFTYSEFDGILGLAYPSLASEYSVPVFDNMMDRHLVARDLFSVYMDRNGQGSMLTLGAIDPSYYTGSLHWVPVTLQQYWQFTVDSVTINGVAVACVGGCQAILDTGTSVLCGPSSDILKIQMAIGATENRYGEFDVNCGNLRSMPTVVFEINGRDYPLSPSAYTSKDQGFCTSGFQGDNNSELWILGDVFIREYYSVFDRANNRVGLAKAI
In turn, B1 gave a (αSN1-1)/(αSN1), 6 hours, 11° C. of 0.7; a (αSN1-1)/(αSN1), 24 hours, 11° C. of 1.9; a αs1-I CN, 6 hours, 11° C. of 2.06e+07 Volume; a αs1-I CN, 24 hours, 11° C. of 2.03e+07 Volume. For the same protein, the αs1 CN, 6 hours, 11° C. came out at 2.86e+07 Volume and the αs1 CN, 24 hours, 11° C. amounted to 1.06e+07 Volume.

B2: camel chymosin variant #137 (F223D) (protein)
chain: GKVAREPLTSYLDSQYFGKIYIGTPPQEFTVVFDTGSSDLWVPSIYCKSNVCKNHHRFDPRKSSTFRNLGKPLSIHYGTGSMEGFLGYDTVTVSNIVDPNQTVGLSTEQPGEVFTYSEFDGILGLAYPSLASEYSVPVFDNMMDRHLVARDLFSVYMDRNGQGSMLTLGAIDPSYYTGSLHWVPVTLQQYWQFTVDSVTINGVAVACVGGCQAILDTGTSVLDGPSSDILKIQMAIGATENRYGEFDVNCGNLRSMPTVVFEINGRDYPLSPSAYTSKDQGFCTSGFQGDNNSELWILGDVFIREYYSVFDRANNRVGLAKAI
Turning to B2, the (αSN1-1)/(αSN1), 6 hours, 11° C. was 0.7; the (αSN1-1)/(αSN1), 24 hours, 11° C. was found to be 2.3; the αs1-I CN, 6 hours, 11° C. turned out to be 2.26e+07 Volume; the αs1-I CN, 24 hours, 11° C. is 2.55e+07 Volume. The protein also registered a αs1 CN, 6 hours, 11° C. of 3.14e+07 Volume and a αs1 CN, 24 hours, 11° C. of 1.1e+07 Volume.

B3: bovine chymosin B variant #74 (A51V, K221M) (protein)
chain: GEVASVPLTNYLDSQYFGKIYLGTPPQEFTVLFDTGSSDFWVPSIYCKSNVCKNHQRFDPRKSSTFQNLGKPLSIHYGTGSMQGILGYDTVTVSNIVDIQQTVGLSTQEPGDVFTYAEFDGILGMAYPSLASEYSIPVFDNMMNRHLVAQDLFSVYMDRNGQESMLTLGAIDPSYYTGSLHWVPVTVQQYWQFTVDSVTISGVVVACEGGCQAILDTGTSMLVGPSSDILNIQQAIGATQNQYGEFDIDCDNLSYMPTVVFEINGKMYPLTPSAYTSQDQGFCTSGFQSENHSQKWILGDVFIREYYSVFDRANNLVGLAKAI
For B3, the “hydrolysis of the first cut in alpha-s1-casein” value (“hydrolysis … in alpha-s1-casein” below) is recorded as “show a clear hydrolysis of the first cut in alpha-s1-casein, leading to a rapid formation of fragment alpha-s1-I casein”; the small, 6 hours, 11° C. worked out at 0 Volume; the small, 16 hours, 30° C. was determined as 5.1e+06 Volume; the small, 24 hours, 11° C. is 0 Volume. Also, the αs1-I CN, 6 hours, 11° C. was determined as 1.98e+07 Volume; the αs1-I CN, 16 hours, 30° C. is 1.86e+07 Volume; the αs1-I CN, 24 hours, 11° C. was found to be 2.47e+07 Volume; the αs1-I CN/αs1 CN, 6 hours, 11° C. is 0.9. The αs1-I CN/αs1 CN, 24 hours, 11° C. turned out to be 3.9; the αs1 CN, 6 hours, 11° C. was determined as 2.09e+07 Volume; the αs1 CN, 16 hours, 30° C. was determined as 1.8e+06 Volume; the αs1 CN, 24 hours, 11° C. is 6.3e+06 Volume.

B4: bovine chymosin B variant #62 (V223Q) (protein)
chain: GEVASVPLTNYLDSQYFGKIYLGTPPQEFTVLFDTGSSDFWVPSIYCKSNACKNHQRFDPRKSSTFQNLGKPLSIHYGTGSMQGILGYDTVTVSNIVDIQQTVGLSTQEPGDVFTYAEFDGILGMAYPSLASEYSIPVFDNMMNRHLVAQDLFSVYMDRNGQESMLTLGAIDPSYYTGSLHWVPVTVQQYWQFTVDSVTISGVVVACEGGCQAILDTGTSKLQGPSSDILNIQQAIGATQNQYGEFDIDCDNLSYMPTVVFEINGKMYPLTPSAYTSQDQGFCTSGFQSENHSQKWILGDVFIREYYSVFDRANNLVGLAKAI
As for B4, the “hydrolysis of the first cut in alpha s1-casein” value was “variant 62 shows slow hydrolysis of the first cut in alpha s1-casein, and therefore slow accumulation of alpha s1-I casein”; the small, 6 hours, 11° C. amounted to 0 Volume; the small, 24 hours, 11° C. is 4.1e+06 Volume; the αs1-I CN, 6 hours, 11° C. amounted to 1.29e+07 Volume. For the same protein, the αs1-I CN, 24 hours, 11° C. was found to be 1.99e+07 Volume; the αs1 CN, 6 hours, 11° C. was 2.67e+07 Volume; the αs1 CN, 24 hours, 11° C. came out at 1.34e+07 Volume.

B5: bovine chymosin B variant #98 (A51V, K221V, S135T, A126G, S273Y, Q240E) (protein)
chain: GEVASVPLTNYLDSQYFGKIYLGTPPQEFTVLFDTGSSDFWVPSIYCKSNVCKNHQRFDPRKSSTFQNLGKPLSIHYGTGSMQGILGYDTVTVSNIVDIQQTVGLSTQEPGDVFTYAEFDGILGMGYPSLASEYTIPVFDNMMNRHLVAQDLFSVYMDRNGQESMLTLGAIDPSYYTGSLHWVPVTVQQYWQFTVDSVTISGVVVACEGGCQAILDTGTSVLVGPSSDILNIQQAIGATENQYGEFDIDCDNLSYMPTVVFEINGKMYPLTPYAYTSQDQGFCTSGFQSENHSQKWILGDVFIREYYSVFDRANNLVGLAKAI
For the protein B5, the “hydrolysis … in alpha-s1-casein” value is “show a clear hydrolysis of the first cut in alpha-s1-casein, leading to a rapid formation of fragment alpha-s1-I casein”; the small, 16 hours, 30° C. is 1.4e+06 Volume; the αs1-I CN, 16 hours, 30° C. amounted to 1.96e+07 Volume; the αs1 CN, 16 hours, 30° C. is 1.5e+06 Volume.

B6: bovine chymosin B variant #103 (A51I, K221T) (protein)
chain: GEVASVPLTNYLDSQYFGKIYLGTPPQEFTVLFDTGSSDFWVPSIYCKSNICKNHQRFDPRKSSTFQNLGKPLSIHYGTGSMQGILGYDTVTVSNIVDIQQTVGLSTQEPGDVFTYAEFDGILGMAYPSLASEYSIPVFDNMMNRHLVAQDLFSVYMDRNGQESMLTLGAIDPSYYTGSLHWVPVTVQQYWQFTVDSVTISGVVVACEGGCQAILDTGTSTLVGPSSDILNIQQAIGATQNQYGEFDIDCDNLSYMPTVVFEINGKMYPLTPSAYTSQDQGFCTSGFQSENHSQKWILGDVFIREYYSVFDRANNLVGLAKAI
Consider B6, for which the “hydrolysis … in alpha-s1-casein” value is listed as “show a clear hydrolysis of the first cut in alpha-s1-casein, leading to a rapid formation of fragment alpha-s1-I casein”; the small, 16 hours, 30° C. came out at 1.3e+06 Volume; the αs1-I CN, 16 hours, 30° C. was 2.03e+07 Volume; the αs1 CN, 16 hours, 30° C. was determined as 1.4e+06 Volume.

B7: bovine chymosin B variant #110 (A51V, K221V, N50D, N144H, N160D, S201D, Q242E, M267E, Q280E) (protein)
chain: GEVASVPLTNYLDSQYFGKIYLGTPPQEFTVLFDTGSSDFWVPSIYCKSDVCKNHQRFDPRKSSTFQNLGKPLSIHYGTGSMQGILGYDTVTVSNIVDIQQTVGLSTQEPGDVFTYAEFDGILGMAYPSLASEYSIPVFDNMMHRHLVAQDLFSVYMDRDGQESMLTLGAIDPSYYTGSLHWVPVTVQQYWQFTVDSVTIDGVVVACEGGCQAILDTGTSVLVGPSSDILNIQQAIGATQNEYGEFDIDCDNLSYMPTVVFEINGKEYPLTPSAYTSQDEGFCTSGFQSENHSQKWILGDVFIREYYSVFDRANNLVGLAKAI
Consider B7, for which the “hydrolysis … in alpha-s1-casein” value is on record as “show a clear hydrolysis of the first cut in alpha-s1-casein, leading to a rapid formation of fragment alpha-s1-I casein”; the small, 16 hours, 30° C. is 1.4e+06 Volume; the αs1-I CN, 16 hours, 30° C. stood at 2.26e+07 Volume; the αs1 CN, 16 hours, 30° C. was 3e+06 Volume.
